These results are taken from US20210061914A1 (published 2021).

Bounds are passed on as bounds.

In assay [1] the target is HLA-A*01:01_… (HLA-PEPTIDE target G10), soluble (human, enzymatically biotinylated (BirA)). Nature of the assay: BLI (Octet), biotinylated pHLA on streptavidin sensor, Fab in solution, 1:1 model. Background: Biolayer interferometry detects binding as a change in optical thickness at a sensor tip.
For assay [2], the target named is HLA-B*35:01_… (HLA-PEPTIDE target G5), soluble (human, enzymatically biotinylated (BirA)). The experiment in a line: scFv PPE ELISA. (ELISA stands for enzyme-linked immunosorbent assay.)
Assay [3] concerns the target HLA-A*02:01_… (HLA-PEPTIDE target G8), soluble (human, enzymatically biotinylated (BirA) for screening and BLI). Nature of the assay: BLI (Octet), biotinylated pHLA on streptavidin sensor, Fab in solution, 1:1 model.

B1: Fab clone R3G10-P4E07 (Fab, V domains shown)
VH: QVQLVQSGAEVKKPGSSVKVSCKASGYTFTGYYMHWVRQAPGQGLEWMGRISPSDGSTTYAPKFQGRVTITADESTSTAYMELSSLRSEDTAVYYCARDMGDAFDIWGQGTTVTVSS
VL: not shown
notes: Fab made in HEK293
What is called Kd is the concentration at which binding is half-saturated. Read a low Kd as tighter binding. As a reminder, the koff is a measure of how fast the partners let go of each other. Higher therefore signals a short-lived complex. The term kon denotes the second-order rate constant of association. A lower kon goes with slower complex formation. In the case of B1, in assay [1], binding was characterised by a dissociation constant (Kd) of 428 nM, the koff was 0.111 s⁻¹ and the kon came to 477000 M⁻¹ s⁻¹.

B2: scFv G5-P3G01 (scFv, V domains shown)
VH: QVQLVQSGAEVKKPGASVKVSCKASGGTFSGYLVSWVRQAPGQGLEWMGWINPNSGGTNTAQKFQGRVTMTRDTSTSTVYMELSSLRSEDTAVYYCAREGYGMDVWGQGTTVTVSS
VL: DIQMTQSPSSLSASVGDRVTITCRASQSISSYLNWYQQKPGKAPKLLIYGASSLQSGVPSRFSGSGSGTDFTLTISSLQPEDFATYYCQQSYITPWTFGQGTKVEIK
Regarding B2, the “fold selective binding, target pHLA vs minipool of negative control pHLAs” value (from here on “fold selective binding, target pHLA”) in assay [2] is not below 3 fold.

B3: scFv G5-P4B02 (scFv, V domains shown)
VH: QVQLVQSGAEVKKPGASVKVSCKASGYTFTGYYMHWVRQAPGQGLEWMGWMNPNIGNTGYAQKFQGRVTMTRDTSTSTVYMELSSLRSEDTAVYYCARGIADSGSYYGNGRDYYYGMDVWGQGTTVTVSS
VL: DIVMTQSPDSLAVSLGERATINCKTSQSVLYRPNNENYLAWYQQKPGQPPKLLIYQASIREPGVPDRFSGSGSGTDFTLTISSLQAEDVAVYYCQQYYTTPYTFGQGTKLEIK
notes: scFv
For B3, the “fold selective binding, target pHLA” value in assay [2] was not below 3 fold.

B4: Fab clone R3G8-P2C10 (Fab, V domains shown)
VH: QVQLVQSGAEVKKPGASVKVSCKASGYTFTSYYMHWVRQAPGQGLEWMGWINPYSGGTNYAQKFQGRVTMTRDTSTSTVYMELSSLRSEDTAVYYCAKGGIYYGSGSYPSWGQGTLVTVSS
VL: DIQMTQSPSSLSASVGDRVTITCRASQDVSTWLAWYQQKPGKAPKLLIYAASSLQSGVPSRFSGSGSGTDFTLTISSLQPEDFATYYCQQSHSTPQTFGQGTKVEIK
notes: Fab made in HEK293
As for B4, in assay [3], the Kd amounted to 17.7 nM, the koff is 0.0013 s⁻¹ and the kon worked out at 75000 M⁻¹ s⁻¹.

B5: Fab clone G8-P1C11 (Fab, V domains shown)
VH: QVQLVQSGAEVKKPGASVKVSCKASGGTLSSYPINWVRQAPGQGLEWMGWISTYSGHADYAQKLQGRVTMTRDTSTSTVYMELSSLRSEDTAVYYCARSYDYGDYLNFDYWGQGTLVTVSS
VL: DIQMTQSPSSLSASVGDRVTITCQASQDISNYLNWYQQKPGKAPKLLIYAASSLQSGVPSRFSGSGSGTDFTLTISSLQPEDFATYYCQQSYSIPPTFGGGTKVDIK
notes: Fab made in HEK293; also called R3G8-P1C11
In assay [3], B5 returned a Kd of 178 nM, a koff of 0.0338 s⁻¹ and a kon of 190000 M⁻¹ s⁻¹.

B6: scFv G5-P3G08 (scFv, V domains shown)
VH: QVQLVQSGAEVKKPGASVKVSCKASGYIFRNYPMHWVRQAPGQGLEWMGWINPDSGGTKYAQKFQGRVTMTRDTSTSTVYMELSSLRSEDTAVYYCARDNGVGVDYWGQGTLVTVSS
VL: DIQMTQSPSSLSASVGDRVTITCRASQGISNYLAWYQQKPGKAPKLLIYAASSLQSGVPSRFSGSGSGTDFTLTISSLQPEDFATYYCQQSYITPYTFGQGTKLEIK
notes: scFv
With B6, in assay [2], the “fold selective binding, target pHLA” value is not below 3 fold.

B7: scFv G5-P1-E05 (scFv, V domains shown)
VH: QVQLVQSGAEVKKPGASVKVSCKASGYTFTSYNMHWVRQAPGQGLEWMGWINPNSGGTNYAQKFQGRVTMTRDTSTSTVYMELSSLRSEDTAVYYCARDVMDVWGQGTTVTVSS
VL: DIQMTQSPSSLSASVGDRVTITCRASQGISNYLNWYQQKPGKAPKLLIYYASSLQSGVPSRFSGSGSGTDFTLTISSLQPEDFATYYCQQTYMMPYTFGQGTKVEIK
notes: scFv
Take B7: the “fold selective binding, target pHLA” value in assay [2] was not below 3 fold.

B8: Fab clone R3G8-P2E04 (Fab, V domains shown)
VH: QVQLVQSGAEVKKPGSSVKVSCKASGGTFSSYGVSWVRQAPGQGLEWMGWISPYSGNTDYAQKFQGRVTITADESTSTAYMELSSLRSEDTAVYYCARGLYYMDVWGKGTTVTVSS
VL: DIQMTQSPSSLSASVGDRVTITCRASQSISSWLAWYQQKPGKAPKLLIYDASNLETGVPSRFSGSGSGTDFTLTISSLQPEDFATYYCQQSYSTPLTFGGGTKLEIK
notes: Fab made in HEK293
In assay [3], B8 showed a Kd of 286 nM, a koff of 0.0789 s⁻¹ and a kon of 545000 M⁻¹ s⁻¹.

B9: Fab clone R3G10-P1B07 (Fab, V domains shown)
VH: QVQLVQSGAEVKKPGASVKVSCKASGYTFTSYYMHWVRQAPGQGLEWMGIIHPGGGTTSYAQKFQGRVTMTRDTSTSTVYMELSSLRSEDTAVYYCARDKVYGDGFDPWGQGTLVTVSS
VL: DIQMTQSPSSLSASVGDRVTITCRASQSISRWLAWYQQKPGKAPKLLIFDASRLQSGVPSRFSGSGSGTDFTLTISSLQPEDFATYYCQQAEAFPYTFGQGTKVEIK
notes: Fab made in HEK293
On to B9, for which, in assay [1], binding was characterised by a dissociation constant (Kd) of 37.5 nM, the koff was determined as 0.00615 s⁻¹ and the on-rate (kon) turned out to be 165000 M⁻¹ s⁻¹.
